# Biological target: p11-AnxA2 peptide cassette (UniProt P60903)
# Assay: crystal structure
substance,measurement,value
p11-AnxA2 peptide cassette (from UniProt P60903 1-97),stoichiometry N,2
